The values below come from patent publication US11110182B2, “Multifunctional RNA nanoparticles and methods for treating cancer and therapeutic resistant cancer” (University of Cincinnati, priority 2016, dated 2021).

The test system of this series is BT474 orthotopic xenograft tumors. In words: Anti-tumor therapy in BT474 orthotopic xenograft breast tumor mouse model. The class given is in vivo, athymic nude mice. Conditions: for tumor lung metastasis: H&E staining of whole lung. Here is the method: FIG. 5A) BT474 orthotopic xenograft mouse models were treated with control pRNA-HER2apt-siScram or pRNA-HER2apt-siMED1 (4 mg/Kg) once a week, in combination with vehicle or tamoxifen (TAM, 0.5 mg/mice/day) 5 days per week. Tumor sizes were measured every three days. FIG. 5B) After three weeks, mice were i.p. injected with D-luciferin, and representative in vivo images of BT474 tumors were recorded using IVIS Lumina imaging system. FIG. 5C) Average weight of the tumors excised at the end of the treatment, and FIG. 5D) the representative photos of tumors. FIG. 5E and FIG. 5F) MED1 expression in the BT474 tumors was examined using IHC staining and FIG. 5G) immunoblotting. FIG. 5H) The expression of Ki-67 in tumor tissues was analyzed using IHC staining, and FIG. 5I) the percentage of Ki-67 positive cells was counted. Scale bar: 100 μm.
FIG. 6A) Whole lung tissues were fixed, embedded, and sectioned for H&E staining, and FIG. 6B) metastasis foci in the whole lung tissues were then counted. Arrow indicates the metastasis foci. Scale bar: 100 μm. FIG. 6C) After digesting tumor tissues with trypsin and 0.1% collagenase, tumor cells were stained for CD44 and CD24, and FIG. 6D) analyzed for CD44^+CD24^−/low stem cell population using flow cytometry. FIG. 6E) Total RNA in the tumor tissues was extracted using TRIZOL reagent, and the expression of TFF-1, FIG. 6F) c-Myc, FIG. 6G) cyclin D1, and FIG. 6H) MMP-9 were determined by real-time PCR.
Migration and metastasis assay. The 8-μm-pore-size polycarbonate membrane, which separates the two chambers of a 6.5-mm Transwell (Costar), was coated with or without 1:8 DMEM-diluted Matrigel (Corning). Transwell assay was performed as previously described.^57 Briefly, BT474 cells were treated with pRNAs alone or together with 4-hydroxy-tamoxifen (4-OHT) for 48 h and starved with serum-free DMEM containing 0.2% BSA overnight. On the next day, cells were collected and 2×10^5 cells were seeded to the upper chamber of Transwell. The lower chamber was filled with 600 μL DMEM medium containing 10% FBS. After incubation at 37° C. for 24 h, cells on the membranes were fixed and stained with 0.1% crystal violet in 20% ethanol solution. Cells at top side of membranes were removed completely, and cells at the bottom side were examined with an Olympus SZX12 microscope and counted. • Mammosphere culture and breast cancer stem cell analyses. BT474 cells were treated with pRNAs for 48 h. Then, cells were suspended in DMEM/F12 medium supplemented with 1×B27 (Thermo Fisher), 20 ng/mL bFGF and 20 ng/mL EGF (R&D), and added into 24-well ultralow attachment plates. After treatment with or without 1 μM 4-OHT for 7 days, mammosphere formation was recorded using an Axiovert S100 TV inverted microscope (Zeiss). Xenograft tumor tissues were cut into small pieces and digested with trypsin and collagenase at 37° C. for 1 h, and tumor cells were collected and rinsed with pre-cold PBS. All cells were stained with FITC-conjugated anti-CD44 antibody and PE-conjugated anti-CD24 antibody (BD Pharmingen) in the dark on ice for 30 min. After resuspension with 0.5 mL PBS buffer, CD44^+/CD24^−/low cell population was analyzed by flow cytometry. • Orthotopic xenograft breast tumor mouse model, in vivo imaging and anti-tumor therapy. Six-week-old female athymic nude mice were purchased from Charles River Laboratories, and all animal procedures were performed under IACUC-approved protocols at the University of Cincinnati. Athymic nude mice were orthotopically injected with 1×10^7 BT474-luc cells mixed with matrigel into the fat pads of the forth pair of mammary glands. When the tumor sizes reached 100-150 mm^3, the mice were randomly divided into four groups (4/group) and intravenously (i.v.) injected with pRNAs (4 mg/Kg) once a week for three weeks. For tamoxifen treatments, 0.5 mg tamoxifen (Sigma) dissolved in sesame oil was intraperitoneally (i.p.) injected into mice 5 days a week for three weeks. […]

B1: pRNA-HER2apt-siMED1: 3-WJ pRNA nanoparticle bearing a HER2-targeting RNA aptamer and two different MED1 siRNAs; strands p1 SEQ ID NO: 3, p2 SEQ ID NO: 4 (nucleic acid)
chain 1: GGACAGUGAAAGUGAGUCAAAGGAUCAAUCAUGGCCAAAGAUGUUACUUUGAGAGCCUU
chain 2: GGCUCUCAAAGUAACAUCUAAGGCCAUGUGUAUGUGGGGGGAGGACGAUGCGGUCUGCUGUGCUUGAUAUGCCCCAGACGACUCGCCCCCCACAUACUUUGUUGAUCCAAUGACUCACUUUCACUGUCCUU
modifications: 2'-F modification; third strand may lack entry; pRNA-HER2apt-siMED1, p1; pRNA-HER2apt-siMED1, p2
Turning to B1, the “Ki-67 expression in tumor sections” value (IHC staining) is “dramatic reduction”. Further, the “expression of MED1 in tumors” value (IHC staining and western blot of BT474 tumors) is reported as “significantly depleted”. For the same molecule, for the setting “combined with tamoxifen, flow cytometry”, the “CD44^+CD24^−/low cancer stem cells in breast tumors” value is given as “almost complete depletion”. In addition, the tumor lung metastasis result (in combination with tamoxifen) was “totally eradicated” and the tumor lung metastasis entry (single agent) is “totally eradicated”. The tumor growth entry is, setting by setting: (pRNA 4 mg/Kg i.v. once a week in combination with tamoxifen 0.5 mg i.p. 5 days a week, three weeks) “almost completely suppressed tumor growth”; (single agent, pRNA 4 mg/Kg i.v. once a week or tamoxifen 0.5 mg i.p. 5 days a week, three weeks) “significantly inhibited tumor growth”. Moreover, the tumor burden result (pRNA alone, 4 mg/Kg i.v. once a week, three weeks) is reported as “reduced tumor burden”. The “CD44^+CD24^−/low cancer stem cells in the breast tumors” value (pRNA alone, flow cytometry) is “significantly reduced”.
